In the Human Domainome abundance scans (Beltran et al. 2025):

B1: Storkhead-box protein 2, residues 64 to 141; numbered along this chain, Q9P2F5 (parent)
chain: SPISQSQFIPLGEILCLAISAMNSARKPVTQEALMEHLTTCFPGVPTPSQEILRHTLNTLVRERKIYPTPDGYFIVTP

Variants of: B1
Test: abundance fitness (aPCA) (normalised: wild type 0, dead -1); higher = more abundant; growth selection in yeast, the domain comes from the species named
Conditions: Homo sapiens

Abundance fitness, by site and new letter:
T40: Q 0.021, V -0.013, E -0.048, P -0.551, Y -0.069, N -0.133, L -0.077, C 0.002, A -0.158
T39: P -0.076, D 0.09, F -0.099, I 0.04, Y 0.024, W -0.003, A -0.025, K -0.15, R 0.016, C -0.038, S -0.043, E -0.137, H -0.044, G 0.019, V 0.098, L -0.095, M -0.117
K27: S -0.045, N -0.156, F -0.182, H -0.119, Q 0.064, D -0.235, T 0.034, W -0.184, A -0.077, P -0.689, L -0.12, G -0.132, E -0.054, V -0.079, I -0.072, M -0.1
E32: I -0.072, G -0.046, Y -0.104, A -0.008, R -0.077, K -0.057, F -0.159, N -0.126, M -0.094, T 0.008, D -0.088, P -0.042, Q 0.041, C -0.174, V -0.071, L -0.117, H 0.056, W -0.139, S -0.03
H37: M -0.357, T -0.322, D -0.259, K -0.164, R -0.144, F -0.285, Y -0.159, E -0.104, N -0.092, P -0.802, C -0.222, S -0.23, V -0.48, W -0.27, A -0.285, L -0.548, G -0.236
L34: E -1.08, G -1.09, V -0.045, P -1.09, H -0.87, T -0.576, R -0.83, S -0.869, W -0.994, I -0.012, Q -0.774, F -0.576, C -0.048, A -0.45, K -1, M -0.208
C41: D -0.055, S 0.021, P -0.534, H -0.096, Q -0.292, T -0.105, R -0.05, V -0.056, I -0.129, Y -0.062, E 0.004, M 0.032, K -0.11, F 0.01, G 0.019, N -0.024, W -0.088, A 0.019
A33: I -0.274, Y -0.167, G -0.038, L -0.061, W -0.279, E -0.067, V -0.127, H 0.019, S -0.001, P -0.339, Q 0.009, N 0.1, D -0.154, K -0.028, R -0.045, T -0.118, C -0.188
T30: R -0.095, C -0.026, Y -0.142, S 0.002, L -0.218, P -0.486, V -0.033, D -0.067, F -0.074, A -0.166, I -0.211, G -0.116, K -0.089, Q 0.01, W -0.043, M -0.102, N -0.352
F42: D 0.273, A -0.05, I 0.009, E 0.108
Q31: L -0.065, S -0.019, P 0.018, H -0.209, V -0.027, I -0.074, G -0.064, M -0.049, A -0.045, K -0.141, C 0.056, F -0.095, N 0.004, E 0.01, T 0.013, R -0.061, Y -0.051
